We go through 8 molecules from PMC5552852, “Structural basis for Ccd1 auto-inhibition in the Wnt pathway through homomerization of the DIX domain” (Scientific Reports, 2017).

Series [1] deals with mCcd1 DIX domain L402A (mouse).
Series [2] deals with mCcd1 DIX domain R400A (mouse).
Series [3] concerns the target mCcd1 DIX domain D399A (mouse).
The next series has as its target T1, mCcd1 DIX domain L402A.
T1 chain: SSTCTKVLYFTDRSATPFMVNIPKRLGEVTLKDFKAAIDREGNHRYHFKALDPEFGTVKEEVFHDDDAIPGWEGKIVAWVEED
In words: dynamic light scattering. As to conditions: chain shown with the change;; parent: est. 4.4; read off a plot.

In the next series the target is T2, mCcd1 DIX domain W466A.
T2 chain: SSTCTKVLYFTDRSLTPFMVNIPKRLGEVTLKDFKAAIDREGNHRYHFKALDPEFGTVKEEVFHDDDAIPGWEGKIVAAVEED
The series can be described thus: dynamic light scattering. As to conditions: chain shown with the change;; parent: est. 4.4; read off a plot.

The target in the next series is T3, mCcd1 DIX domain F397A.
T3 chain: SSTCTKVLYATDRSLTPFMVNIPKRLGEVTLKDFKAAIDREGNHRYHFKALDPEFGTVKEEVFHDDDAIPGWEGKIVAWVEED
The series can be described thus: dynamic light scattering. Conditions: chain shown with the change;; parent: est. 4.4; read off a plot.

A further series addresses T4, MBP-fused zCcd1 DIX (zebrafish, UniProt Q804T6 356-438).
T4 construct: DIX domain of zebrafish Ccd1, cDNA Gene ID 360137; The uncleaved precursor of m2; also called MBP-fused zCcd1 DIX domain; source: E. coli (plasmid pOPINM), purified (amylose resin)
T4 sequence (looked up): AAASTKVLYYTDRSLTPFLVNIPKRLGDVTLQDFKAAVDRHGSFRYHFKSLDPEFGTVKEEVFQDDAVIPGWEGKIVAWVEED
The series can be described thus: pull-down; MBP-fused mCcd1, zCcd1 or Dvl1 DIX (0.8 mM) held on amylose resin, Axin DIX or Dvl1 DIX free; pull-down buffer, 277 K (Figures 5f, 5g). As to conditions: both partners purified.

Series [4] deals with the molecule itself. The series can be described thus: SEC; gel filtration chromatography of the DIX domains without carrier (Figures 1b and 4e).

In the case of “mCcd1 DIX domain L402A (domain or fragment)”, in series [1], the TCF-dependent transcription (TOPflash luciferase reporter, HeLa cells transfected with FLAG-tagged mCcd1 BalphaL L402A), compared to the wild type came to 1.5 fold.

On to “mCcd1 DIX domain R400A (domain or fragment)”, for which the TCF-dependent transcription (TOPflash luciferase reporter, HeLa cells transfected with FLAG-tagged mCcd1 BalphaL R400A), compared to the wild type in series [2] was 1.4 fold.

In series [3], “mCcd1 DIX domain D399A (domain or fragment)” returned a TCF-dependent transcription (TOPflash luciferase reporter, HeLa cells transfected with FLAG-tagged mCcd1 BalphaL D399A), compared to the wild type of 1.3 fold.

B1: mouse Coiled-coil-DIX1 (mCcd1) DIX domain L402A (protein)
chain: SSTCTKVLYFTDRSATPFMVNIPKRLGEVTLKDFKAAIDREGNHRYHFKALDPEFGTVKEEVFHDDDAIPGWEGKIVAWVEED
As for B1, in the series with mCcd1 DIX domain L402A, the other: DLS peak size (diameter) of homopolymer was found to be 7.3 nm.

B2: mouse Coiled-coil-DIX1 (mCcd1) DIX domain W466A (protein)
chain: SSTCTKVLYFTDRSLTPFMVNIPKRLGEVTLKDFKAAIDREGNHRYHFKALDPEFGTVKEEVFHDDDAIPGWEGKIVAAVEED
As to B2, in the series with mCcd1 DIX domain W466A, the other: DLS peak size (diameter) of homopolymer stood at 8.2 nm.

B3: mouse Coiled-coil-DIX1 (mCcd1) DIX domain F397A (protein)
chain: SSTCTKVLYATDRSLTPFMVNIPKRLGEVTLKDFKAAIDREGNHRYHFKALDPEFGTVKEEVFHDDDAIPGWEGKIVAWVEED
As to B3, the other: DLS peak size (diameter) of homopolymer with mCcd1 DIX domain F397A was 5.5 nm.

B4: Axin DIX domain (domain or fragment, UniProt O70239 745-827, looked up)
chain: CDSIVVAYYFCGEPIPYRTLVRGRAVTLGQFKELLTKKGSYRYYFKKVSDEFDCGVVFEEVREDEAILPVFEEKIIGKVEKVD
notes: DIX domain of Axin; source: E. coli, expressed as a fusion construct with GST or MBP, purified
Turning to B4, the “fold binding relative to MBP-fused mCcd1 DIX” value in the series with MBP-fused zCcd1 DIX is 1.53 fold.

B5: zebrafish Coiled-coil-DIX1 (zCcd1) DIX domain (domain or fragment, UniProt Q804T6 356-438, looked up)
chain: AAASTKVLYYTDRSLTPFLVNIPKRLGDVTLQDFKAAVDRHGSFRYHFKSLDPEFGTVKEEVFQDDAVIPGWEGKIVAWVEED
notes: DIX domain of zebrafish Coiled-coil-DIX1 (zCcd1), residues 356-438, cDNA Gene ID 360137; also called zCcd DIX domain; Zebrafish CCD1; source: E. coli (plasmid pOPINM), purified (amylose resin, HRV3C cleavage, HiTrap Q)
For the molecule B5, the “stoichiometry N” value in series [4] came to 2.
